# In patent publication US20210032299A1 (Eli Lilly, published 2021):
# Starred links: 1 amine or outer side, 2 acyl side, 3 side chain; linkers in the order of their positions; H or OH if unused. Non-standard residues stand in square brackets, D forms with d. Groups on a side chain read outwards from the residue. No end group written: not given here. *: point of attachment. C20 diacid = O=C(O)CCCCCCCCCCCCCCCCCCC(=O)*; C18 diacid = O=C(O)CCCCCCCCCCCCCCCCC(=O)*; αMePhe(2-F) = C[C@](N)(Cc1ccccc1F)C(=O)O; γGlu = O=C(O)[C@H](CCC(=O)[*:2])N[*:1]; AEEA = NCCOCCOCC(=O)O; Aib = CC(C)(N)C(=O)O
# T1: human glucose-dependent insulinotropic polypeptide (GIP) receptor (human, UniProt P48546 22-466)
# T1 construct: whole, on cells; Assayed as crude membranes of stably transfected CHO cells; also called hGIPR; human GIP receptor
# T1 sequence (looked up): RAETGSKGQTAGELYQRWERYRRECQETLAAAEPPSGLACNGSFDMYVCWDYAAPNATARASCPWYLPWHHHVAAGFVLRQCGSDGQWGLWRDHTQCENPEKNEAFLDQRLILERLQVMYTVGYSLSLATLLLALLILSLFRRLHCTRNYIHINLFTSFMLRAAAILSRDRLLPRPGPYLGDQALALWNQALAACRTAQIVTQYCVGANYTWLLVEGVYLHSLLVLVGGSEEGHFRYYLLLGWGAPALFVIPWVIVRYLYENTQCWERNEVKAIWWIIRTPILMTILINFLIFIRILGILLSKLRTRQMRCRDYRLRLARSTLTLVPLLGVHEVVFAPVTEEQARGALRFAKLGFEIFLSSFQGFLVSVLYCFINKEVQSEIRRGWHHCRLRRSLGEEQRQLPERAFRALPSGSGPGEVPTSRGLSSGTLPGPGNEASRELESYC
# B1: Example 30 (peptide)
# peptide: Ac-[dY]AEGT[αMePhe(2-F)]ISDYSIALDKK([AEEA-AEEA-γGlu-C18 diacid])HQ[Aib]EFVNYLLAGGPSSGAPPPS-NH2
# SMILES: CC[C@H](C)[C@H](NC(=O)[C@H](CO)NC(=O)[C@H](Cc1ccc(O)cc1)NC(=O)[C@H](CC(=O)O)NC(=O)[C@H](CO)NC(=O)[C@@H](NC(=O)[C@](C)(Cc1ccccc1F)NC(=O)[C@@H](NC(=O)CNC(=O)[C@H](CCC(=O)O)NC(=O)[C@H](C)NC(=O)[C@@H](Cc1ccc(O)cc1)NC(C)=O)[C@@H](C)O)[C@@H](C)CC)C(=O)N[C@@H](C)C(=O)N[C@@H](CC(C)C)C(=O)N[C@@H](CC(=O)O)C(=O)N[C@@H](CCCCN)C(=O)N[C@@H](CCCCNC(=O)COCCOCCNC(=O)COCCOCCNC(=O)CC[C@H](NC(=O)CCCCCCCCCCCCCCCCC(=O)O)C(=O)O)C(=O)N[C@@H](Cc1c[nH]cn1)C(=O)N[C@@H](CCC(N)=O)C(=O)NC(C)(C)C(=O)N[C@@H](CCC(=O)O)C(=O)N[C@@H](Cc1ccccc1)C(=O)N[C@H](C(=O)N[C@@H](CC(N)=O)C(=O)N[C@@H](Cc1ccc(O)cc1)C(=O)N[C@@H](CC(C)C)C(=O)N[C@@H](CC(C)C)C(=O)N[C@@H](C)C(=O)NCC(=O)NCC(=O)N1CCC[C@H]1C(=O)N[C@@H](CO)C(=O)N[C@@H](CO)C(=O)NCC(=O)N[C@@H](C)C(=O)N1CCC[C@H]1C(=O)N1CCC[C@H]1C(=O)N1CCC[C@H]1C(=O)N[C@@H](CO)C(N)=O)C(C)C
# B2: Example 36 (peptide)
# peptide: Y[Aib]EGT[αMePhe(2-F)]ISDYSIALDKK([AEEA-AEEA-γGlu-C20 diacid])HQ[Aib]DFVEYLLETGPSSGAPPPS-NH2
# modifications: N-terminus assumed
# SMILES: CC[C@H](C)[C@H](NC(=O)[C@H](CO)NC(=O)[C@H](Cc1ccc(O)cc1)NC(=O)[C@H](CC(=O)O)NC(=O)[C@H](CO)NC(=O)[C@@H](NC(=O)[C@](C)(Cc1ccccc1F)NC(=O)[C@@H](NC(=O)CNC(=O)[C@H](CCC(=O)O)NC(=O)C(C)(C)NC(=O)[C@@H](N)Cc1ccc(O)cc1)[C@@H](C)O)[C@@H](C)CC)C(=O)N[C@@H](C)C(=O)N[C@@H](CC(C)C)C(=O)N[C@@H](CC(=O)O)C(=O)N[C@@H](CCCCN)C(=O)N[C@@H](CCCCNC(=O)COCCOCCNC(=O)COCCOCCNC(=O)CC[C@H](NC(=O)CCCCCCCCCCCCCCCCCCC(=O)O)C(=O)O)C(=O)N[C@@H](Cc1c[nH]cn1)C(=O)N[C@@H](CCC(N)=O)C(=O)NC(C)(C)C(=O)N[C@@H](CC(=O)O)C(=O)N[C@@H](Cc1ccccc1)C(=O)N[C@H](C(=O)N[C@@H](CCC(=O)O)C(=O)N[C@@H](Cc1ccc(O)cc1)C(=O)N[C@@H](CC(C)C)C(=O)N[C@@H](CC(C)C)C(=O)N[C@@H](CCC(=O)O)C(=O)N[C@H](C(=O)NCC(=O)N1CCC[C@H]1C(=O)N[C@@H](CO)C(=O)N[C@@H](CO)C(=O)NCC(=O)N[C@@H](C)C(=O)N1CCC[C@H]1C(=O)N1CCC[C@H]1C(=O)N1CCC[C@H]1C(=O)N[C@@H](CO)C(N)=O)[C@@H](C)O)C(C)C
# B3: Example 37 (peptide)
# peptide: Y[Aib]EGT[αMePhe(2-F)]ISDYSIALDKK([AEEA-AEEA-γGlu-C20 diacid])HQ[Aib]DFVEYLLEGGPSSGAPPPS-NH2
# modifications: N-terminus assumed
# SMILES: CC[C@H](C)[C@H](NC(=O)[C@H](CO)NC(=O)[C@H](Cc1ccc(O)cc1)NC(=O)[C@H](CC(=O)O)NC(=O)[C@H](CO)NC(=O)[C@@H](NC(=O)[C@](C)(Cc1ccccc1F)NC(=O)[C@@H](NC(=O)CNC(=O)[C@H](CCC(=O)O)NC(=O)C(C)(C)NC(=O)[C@@H](N)Cc1ccc(O)cc1)[C@@H](C)O)[C@@H](C)CC)C(=O)N[C@@H](C)C(=O)N[C@@H](CC(C)C)C(=O)N[C@@H](CC(=O)O)C(=O)N[C@@H](CCCCN)C(=O)N[C@@H](CCCCNC(=O)COCCOCCNC(=O)COCCOCCNC(=O)CC[C@H](NC(=O)CCCCCCCCCCCCCCCCCCC(=O)O)C(=O)O)C(=O)N[C@@H](Cc1c[nH]cn1)C(=O)N[C@@H](CCC(N)=O)C(=O)NC(C)(C)C(=O)N[C@@H](CC(=O)O)C(=O)N[C@@H](Cc1ccccc1)C(=O)N[C@H](C(=O)N[C@@H](CCC(=O)O)C(=O)N[C@@H](Cc1ccc(O)cc1)C(=O)N[C@@H](CC(C)C)C(=O)N[C@@H](CC(C)C)C(=O)N[C@@H](CCC(=O)O)C(=O)NCC(=O)NCC(=O)N1CCC[C@H]1C(=O)N[C@@H](CO)C(=O)N[C@@H](CO)C(=O)NCC(=O)N[C@@H](C)C(=O)N1CCC[C@H]1C(=O)N1CCC[C@H]1C(=O)N1CCC[C@H]1C(=O)N[C@@H](CO)C(N)=O)C(C)C
# B4: Example 40 (peptide)
# peptide: Y[Aib]EGT[αMePhe(2-F)]ISDYSIALDKK([AEEA-AEEA-γGlu-C20 diacid])HQ[Aib]DFVEWLLETGPSSGAPPPS-NH2
# modifications: N-terminus assumed
# SMILES: CC[C@H](C)[C@H](NC(=O)[C@H](CO)NC(=O)[C@H](Cc1ccc(O)cc1)NC(=O)[C@H](CC(=O)O)NC(=O)[C@H](CO)NC(=O)[C@@H](NC(=O)[C@](C)(Cc1ccccc1F)NC(=O)[C@@H](NC(=O)CNC(=O)[C@H](CCC(=O)O)NC(=O)C(C)(C)NC(=O)[C@@H](N)Cc1ccc(O)cc1)[C@@H](C)O)[C@@H](C)CC)C(=O)N[C@@H](C)C(=O)N[C@@H](CC(C)C)C(=O)N[C@@H](CC(=O)O)C(=O)N[C@@H](CCCCN)C(=O)N[C@@H](CCCCNC(=O)COCCOCCNC(=O)COCCOCCNC(=O)CC[C@H](NC(=O)CCCCCCCCCCCCCCCCCCC(=O)O)C(=O)O)C(=O)N[C@@H](Cc1c[nH]cn1)C(=O)N[C@@H](CCC(N)=O)C(=O)NC(C)(C)C(=O)N[C@@H](CC(=O)O)C(=O)N[C@@H](Cc1ccccc1)C(=O)N[C@H](C(=O)N[C@@H](CCC(=O)O)C(=O)N[C@@H](Cc1c[nH]c2ccccc12)C(=O)N[C@@H](CC(C)C)C(=O)N[C@@H](CC(C)C)C(=O)N[C@@H](CCC(=O)O)C(=O)N[C@H](C(=O)NCC(=O)N1CCC[C@H]1C(=O)N[C@@H](CO)C(=O)N[C@@H](CO)C(=O)NCC(=O)N[C@@H](C)C(=O)N1CCC[C@H]1C(=O)N1CCC[C@H]1C(=O)N1CCC[C@H]1C(=O)N[C@@H](CO)C(N)=O)[C@@H](C)O)C(C)C
# Target: T2, human glucagon receptor (human, UniProt P47871 26-477)
# T2 construct: whole, on cells; Assayed as crude membranes of stably transfected HEK293 cells; also called hGcgR; GcgR
# Assay: SPA, displacement of [125I]-Gcg from hGcgR membranes, 0.1% bacitracin
# Summary of the method: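 Binding buffer: 25 mM HEPES pH 7.4, 2.5 mM CaCl₂, 1 mM MgCl₂, 0.003% Tween-20, protease inhibitors without EDTA. Counted by scintillation after 12 h incubation/settling at room temperature. Four-parameter nonlinear fit; Kᵢ given as geometric mean ± SEM of independent replicates run on different days.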
# T2 sequence (P47871 26-477): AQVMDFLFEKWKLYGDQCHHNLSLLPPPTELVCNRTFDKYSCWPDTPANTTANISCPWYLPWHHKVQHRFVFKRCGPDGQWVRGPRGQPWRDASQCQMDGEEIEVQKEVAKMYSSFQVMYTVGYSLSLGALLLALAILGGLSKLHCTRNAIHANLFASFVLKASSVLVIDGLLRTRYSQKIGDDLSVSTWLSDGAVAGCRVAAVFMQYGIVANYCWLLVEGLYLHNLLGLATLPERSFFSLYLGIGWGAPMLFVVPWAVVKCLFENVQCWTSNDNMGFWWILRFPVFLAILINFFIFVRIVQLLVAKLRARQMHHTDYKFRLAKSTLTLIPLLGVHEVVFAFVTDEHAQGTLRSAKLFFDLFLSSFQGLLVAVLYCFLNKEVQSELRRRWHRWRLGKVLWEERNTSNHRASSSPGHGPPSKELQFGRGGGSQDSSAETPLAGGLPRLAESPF
row,Binder,Ki
1,B1,407 nM
2,B2,201 nM
3,B3,51.4 nM
4,B4,50.9 nM

# Target: T3, human GLP-1 receptor (human, UniProt P43220 24-463)
# T3 construct: whole, on cells; Assayed as crude membranes of stably transfected HEK293 cells; also called hGLP1R; hGLP-1R
# Assay: SPA, displacement of [125I]-GLP-1 from hGLP-1R membranes, 0.1% bacitracin
# Summary of the method: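 Binding buffer: 25 mM HEPES pH 7.4, 2.5 mM CaCl₂, 1 mM MgCl₂, 0.1% bacitracin, 0.003% Tween-20, protease inhibitors without EDTA. Four-parameter nonlinear regression; Kᵢ given as geometric mean ± SEM, n = independent replicates run on different days.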
row,Binder,Ki
1,B1,26.5 nM
2,B2,393 nM
3,B3,83.9 nM
4,B4,302 nM

# Target: T1, human glucose-dependent insulinotropic …
# Assay: SPA, displacement of [125I]-GIP from hGIPR membranes, 0.1% bacitracin
row,Binder,Ki
1,B1,0.037 nM
2,B2,0.0683 nM
3,B3,0.026 nM
4,B4,0.0594 nM
